Reference: publication PMC2929395

Substrate: CC(C)(CO)[C@@H](O)C(=O)NCCC(=O)O
Experiment: purified protein, by the assay type
Conditions: pH 7.5, 37.0 °C

Row | Protein | Km (other: substrate) [µM] | Km (other: wild-type PanK3, substrate) [µM]
1 | PanK3(S195V) (Homo sapiens; S195V) (protein) MKIKDAKKPSFPWFGMDIGGTLVKLSYFEPIDITAEEEQEEVESLKSIRKYLTSNVAYGSTGIRDVHLELKDLTLFGRRGNLHFIRFPTQDLPTFIQMGRDKNFSTLQTVLCATGGGAYKFEKDFRTIGNLHLHKLDELDCLVKGLLYIDSVSFNGQAECYYFANASEPERCQKMPFNLDDPYPLLVVNIGSGVVILAVHSKDNYKRVTGTSLGGGTFLGLCSLLTGCESFEEALEMASKGDSTQADKLVRDIYGGDYERFGLPGWAVASSFGNMIYKEKRESVSKEDLARATLVTITNNIGSVARMCAVNEKINRVVFVGNFLRVNTLSMKLLAYALDYWSKGQLKALFLEHEGYFGAVGALLGLPNFS | 151 ± 16 | –
2 | PanK3 (Homo sapiens) (protein) MKIKDAKKPSFPWFGMDIGGTLVKLSYFEPIDITAEEEQEEVESLKSIRKYLTSNVAYGSTGIRDVHLELKDLTLFGRRGNLHFIRFPTQDLPTFIQMGRDKNFSTLQTVLCATGGGAYKFEKDFRTIGNLHLHKLDELDCLVKGLLYIDSVSFNGQAECYYFANASEPERCQKMPFNLDDPYPLLVVNIGSGVSILAVHSKDNYKRVTGTSLGGGTFLGLCSLLTGCESFEEALEMASKGDSTQADKLVRDIYGGDYERFGLPGWAVASSFGNMIYKEKRESVSKEDLARATLVTITNNIGSVARMCAVNEKINRVVFVGNFLRVNTLSMKLLAYALDYWSKGQLKALFLEHEGYFGAVGALLGLPNFS | – | 14 ± 0.1
